# Key:
# [1] = tested on: oligomeric Aβ1-42 (oAβ1-42-biotin bait); assay: Affinity capture interactome Experiment II (C-terminally tethered oAβ1-42-biotin vs biotin); details: for Experiment II oAβ1-42-B/B Ratio: enrichment relative to biotin-only negative control, human frontal lobe digitonin extract, TMT, pH 8.0, 4°C overnight
# [2] = tested on: oligomeric versus monomeric Aβ1-42 (Aβ1-42-biotin bait); assay: Affinity capture interactome Experiment III (oAβ1-42-biotin vs mAβ1-42-biotin); details: for Experiment III oAβ1-42-B/mAβ1-42-B Ratio: oligomeric versus monomeric bait, human frontal lobe digitonin extract, TMT, pH 8.0, 4°C overnight
Molecule,Experiment II oAβ1-42-B/B Ratio [1],Experiment III oAβ1-42-B/mAβ1-42-B Ratio [2],other results
"Heat shock protein, 60 kDa, mitochondrial: human brain protein (protein, UniProt P10809 27-573, looked up) 60 kDa heat shock protein, …: AKDVKFGADARALMLQGVDLLADAVAVTMGPKGRTVIIEQSWGSPKVTKDGVTVAKSIDLKDKYKNIGAKLVQDVANNTNEEAGDGTTTATVLARSIAKEGFEKISKGANPVEIRRGVMLAVDAVIAELKKQSKPVTTPEEIAQVATISANGDKEIGNIISDAMKKVGRKGVITVKDGKTLNDELEIIEGMKFDRGYISPYFINTSKGQKCEFQDAYVLLSEKKISSIQSIVPALEIANAHRKPLVIIAEDVDGEALSTLVLNRLKVGLQVVAVKAPGFGDNRKNQLKDMAIATGGAVFGEEGLTLNLEDVQPHDLGKVGEVIVTKDDAMLLKGKGDKAQIEKRIQEIIEQLDVTTSEYEKEKLNERLAKLSDGVAVLKVGGTSDVEVNEKKDRVTDALNATRAAVEEGIVLGGGCALLRCIPALDSLTPANEDQKIGIEIIKRTLKIPAMTIAKNAGVEGSLIVEKIMQSSSEVGYDAMAGDFVNMVEKGIIDPTKVVRTALLDAAGVASLLTTAEVVVTEIPKEEKDPGMGAMGGMGGGMGGGMF",2.27,4.21,
"Cofilin-2: human brain protein (protein, UniProt Q9Y281 2-166, looked up) Cofilin-2: ASGVTVNDEVIKVFNDMKVRKSSTQEEIKKRKKAVLFCLSDDKRQIIVEEAKQILVGDIGDTVEDPYTSFVKLLPLNDCRYALYDATYETKESKKEDLVFIFWAPESAPLKSKMIYASSKDAIKKKFTGIKHEWQVNGLDDIKDRSTLGEKLGGNVVVSLEGKPL",1.81,6.93,
"Peroxiredoxin-5, mitochondrial: human brain protein (protein, UniProt P30044 53-214, looked up) Peroxiredoxin-5, mitochondrial: MAPIKVGDAIPAVEVFEGEPGNKVNLAELFKGKKGVLFGVPGAFTPGCSKTHLPGFVEQAEALKAKGVQVVACLSVNDAFVTGEWGRAHKAEGKVRLLADPTGAFGKETDLLLDDSLVSIFGNRRLKRFSMVVQDGIVKALNVEPDGTGLTCSLAPNIISQL",2.15,5.90,
"14-3-3 protein epsilon: human brain protein (protein, UniProt P62258 1-255, looked up) 14-3-3 protein epsilon: MDDREDLVYQAKLAEQAERYDEMVESMKKVAGMDVELTVEERNLLSVAYKNVIGARRASWRIISSIEQKEENKGGEDKLKMIREYRQMVETELKLICCDILDVLDKHLIPAANTGESKVFYYKMKGDYHRYLAEFATGNDRKEAAENSLVAYKAASDIAMTELPPTHPIRLGLALNFSVFYYEILNSPDRACRLAKAAFDDAIAELDTLSEESYKDSTLIMQLLRDNLTLWTSDMQGDGEEQNKEALQDVEDENQ",,,"126/131 ([1]; Experiment II, oAbeta 1-42-biotin (TMT 126) versus biotin (TMT 131), replicate channel 126): 1.157; 128/131 ([1]; Experiment II, oAbeta 1-42-biotin (TMT 128) versus biotin (TMT 131), replicate channel 128): 1.411; 130/131 ([1]; Experiment II, oAbeta 1-42-biotin (TMT 130) versus biotin (TMT 131), replicate channel 130): 1.195; 128/131 ([2]; Experiment III, oAbeta 1-42 (TMT 128) versus mAbeta 1-42 (TMT 131), replicate channel 128): 1.113; 130/131 ([2]; Experiment III, oAbeta 1-42 (TMT 130) versus mAbeta 1-42 (TMT 131), replicate channel 130): 0.949"
"Tubulin beta-3 chain: human brain protein (protein, UniProt Q13509 1-450, looked up) Tubulin beta-3 chain: MREIVHIQAGQCGNQIGAKFWEVISDEHGIDPSGNYVGDSDLQLERISVYYNEASSHKYVPRAILVDLEPGTMDSVRSGAFGHLFRPDNFIFGQSGAGNNWAKGHYTEGAELVDSVLDVVRKECENCDCLQGFQLTHSLGGGTGSGMGTLLISKVREEYPDRIMNTFSVVPSPKVSDTVVEPYNATLSIHQLVENTDETYCIDNEALYDICFRTLKLATPTYGDLNHLVSATMSGVTTSLRFPGQLNADLRKLAVNMVPFPRLHFFMPGFAPLTARGSQQYRALTVPELTQQMFDAKNMMAACDPRHGRYLTVATVFRGRMSMKEVDEQMLAIQSKNSSYFVEWIPNNVKVAVCDIPPRGLKMSSTFIGNSTAIQELFKRISEQFTAMFRRKAFLHWYTGEGMDEMEFTEAESNMNDLVSEYQQYQDATAEEEGEMYEDDEEESEAQGPK",1.18,2.04,
"Endophilin-A1: human brain protein (protein, UniProt Q99962 1-352, looked up) Endophilin-A1: MSVAGLKKQFHKATQKVSEKVGGAEGTKLDDDFKEMERKVDVTSRAVMEIMTKTIEYLQPNPASRAKLSMINTMSKIRGQEKGPGYPQAEALLAEAMLKFGRELGDDCNFGPALGEVGEAMRELSEVKDSLDIEVKQNFIDPLQNLHDKDLREIQHHLKKLEGRRLDFDYKKKRQGKIPDEELRQALEKFDESKEIAESSMFNLLEMDIEQVSQLSALVQAQLEYHKQAVQILQQVTVRLEERIRQASSQPRREYQPKPRMSLEFPTGDSTQPNGGLSHTGTPKPSGVQMDQPCCRALYDFEPENEGELGFKEGDIITLTNQIDENWYEGMLHGHSGFFPINYVEILVALPH",1.28,1.07,
"ATP synthase subunit alpha, mitochondrial: human brain protein (protein, UniProt P25705 44-553, looked up) ATP synthase F(1) complex …: QKTGTAEMSSILEERILGADTSVDLEETGRVLSIGDGIARVHGLRNVQAEEMVEFSSGLKGMSLNLEPDNVGVVVFGNDKLIKEGDIVKRTGAIVDVPVGEELLGRVVDALGNAIDGKGPIGSKTRRRVGLKAPGIIPRISVREPMQTGIKAVDSLVPIGRGQRELIIGDRQTGKTSIAIDTIINQKRFNDGSDEKKKLYCIYVAIGQKRSTVAQLVKRLTDADAMKYTIVVSATASDAAPLQYLAPYSGCSMGEYFRDNGKHALIIYDDLSKQAVAYRQMSLLLRRPPGREAYPGDVFYLHSRLLERAAKMNDAFGGGSLTALPVIETQAGDVSAYIPTNVISITDGQIFLETELFYKGIRPAINVGLSVSRVGSAAQTRAMKQVAGTMKLELAQYREVAAFAQFGSDLDAATQQLLSRGVRLTELLKQGQYSPMAIEEQVAVIYAGVRGYLDKLEPSKITKFENAFLSHVVSQHQALLGTIRADGKISEQSDAKLKEIVTNFLAGFEA",2.16,4.88,
"Acetyl-CoA acetyltransferase, mitochondrial: human brain protein (protein, UniProt P24752 34-427, looked up) Acetyl-CoA acetyltransferase, …: VSKPTLKEVVIVSATRTPIGSFLGSLSLLPATKLGSIAIQGAIEKAGIPKEEVKEAYMGNVLQGGEGQAPTRQAVLGAGLPISTPCTTINKVCASGMKAIMMASQSLMCGHQDVMVAGGMESMSNVPYVMNRGSTPYGGVKLEDLIVKDGLTDVYNKIHMGSCAENTAKKLNIARNEQDAYAINSYTRSKAAWEAGKFGNEVIPVTVTVKGQPDVVVKEDEEYKRVDFSKVPKLKTVFQKENGTVTAANASTLNDGAAALVLMTADAAKRLNVTPLARIVAFADAAVEPIDFPIAPVYAASMVLKDVGLKKEDIAMWEVNEAFSLVVLANIKMLEIDPQKVNINGGAVSLGHPIGMSGARIVGHLTHALKQGEYGLASICNGGGGASAMLIQKL",2.64,2.45,
